The record followed here is paper PMC3812353.

Residue numbers refer to the chain shown, from its start.

In one data set the target is T1, MutS-F39A-IAANS (Thermus aquaticus (printed as T. …, UniProt Q56215 1-811, F39A;C42A;M88C)).
T1 sequence: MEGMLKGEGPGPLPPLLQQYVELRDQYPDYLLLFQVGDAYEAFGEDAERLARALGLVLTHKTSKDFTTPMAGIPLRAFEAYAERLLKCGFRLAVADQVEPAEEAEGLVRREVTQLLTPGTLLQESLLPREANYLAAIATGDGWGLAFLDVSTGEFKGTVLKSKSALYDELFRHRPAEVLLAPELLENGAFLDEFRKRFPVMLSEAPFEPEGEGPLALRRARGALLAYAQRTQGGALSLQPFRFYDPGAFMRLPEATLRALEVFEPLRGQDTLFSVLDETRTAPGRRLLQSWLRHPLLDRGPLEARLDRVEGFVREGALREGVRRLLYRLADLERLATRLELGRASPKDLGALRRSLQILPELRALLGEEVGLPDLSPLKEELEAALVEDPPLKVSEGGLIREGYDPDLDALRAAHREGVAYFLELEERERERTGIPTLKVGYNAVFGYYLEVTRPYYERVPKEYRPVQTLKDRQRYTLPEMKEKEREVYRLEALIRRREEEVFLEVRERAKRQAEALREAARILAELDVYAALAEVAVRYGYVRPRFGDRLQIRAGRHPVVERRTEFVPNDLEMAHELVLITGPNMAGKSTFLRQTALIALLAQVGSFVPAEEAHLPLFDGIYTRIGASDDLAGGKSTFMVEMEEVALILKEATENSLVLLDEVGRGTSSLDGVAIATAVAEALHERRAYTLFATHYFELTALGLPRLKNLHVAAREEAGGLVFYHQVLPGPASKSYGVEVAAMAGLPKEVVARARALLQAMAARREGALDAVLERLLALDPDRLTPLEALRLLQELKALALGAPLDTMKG
In words: IAANS fluorescence quenching, equilibrium and stopped-flow.

In data set [1] the target is T2, MutS-IAANS (MutS-C42A/M88C) (Thermus aquaticus (printed as T. …, UniProt Q56215 1-811, C42A;M88C)).
T2 sequence: T1 sequence with A39F
As to the kind of experiment: stopped-flow IAANS fluorescence.

In data set [2] the target is T2, MutS-IAANS (MutS-C42A/M88C). In words: IAANS fluorescence quenching, equilibrium.
Data set [3] addresses T3, MutS (wild type) (Thermus aquaticus (printed as T. …, UniProt Q56215 1-811)).
T3 sequence: T1 sequence with A39F, A42C, C88M
In words: fluorescence anisotropy, equilibrium.

For another data set, the target named is T4, MutS-F39A (Thermus aquaticus (printed as T. …, UniProt Q56215 1-811, F39A)).
T4 sequence: T1 sequence with A42C, C88M
In words: fluorescence anisotropy, equilibrium.

Data set [4] deals with T3, MutS (wild type). In words: stopped-flow fluorescence anisotropy.

B1: DNA(+T) (dsDNA)
DNA 1: ATGTGAATCAGTATGGTATATATCTGCTGAAGGAAAT
DNA 2: ATTTCCTTCAGCAGATATTACCATACTGATTCACAT
For orientation: Kd means a measure of binding affinity in units of concentration. Regarding B1, the binding result with MutS-F39A-IAANS was “no binding”. The “apparent K (half saturation)” value in data set [1] worked out at 2300 ± 700 nM. In data set [2], this molecule showed a Kd of 0.022 ± 0.004 µM.

B2: DNA(+T)TAMRA (dsDNA)
DNA 1: B1 DNA 1
DNA 2: B1 DNA 2
modifications: 3' amino linker
For the molecule B2, in the data set with MutS (wild type) [3], the Kd came to 0.013 ± 0.002 µM. Also, the binding result with MutS-F39A was “no binding”. The “apparent K (half saturation)” value with MutS (wild type) [4] is 5 ± 2 µM.
